Results published in patent CN117164676A (UNIV XIAMEN; BEIJING WANTAI BIOLOGICAL PHARMACY ENTPR CO LTD, dated 2023).

Tests used:
[1] = target: T1, 水痘-带状疱疹病毒(VZV) pOka毒株ORF9蛋白 (Varicella-Zoster Virus, pOka毒株, UniProt P09272 1-302); experiment: cell-based or functional assay
T1 sequence: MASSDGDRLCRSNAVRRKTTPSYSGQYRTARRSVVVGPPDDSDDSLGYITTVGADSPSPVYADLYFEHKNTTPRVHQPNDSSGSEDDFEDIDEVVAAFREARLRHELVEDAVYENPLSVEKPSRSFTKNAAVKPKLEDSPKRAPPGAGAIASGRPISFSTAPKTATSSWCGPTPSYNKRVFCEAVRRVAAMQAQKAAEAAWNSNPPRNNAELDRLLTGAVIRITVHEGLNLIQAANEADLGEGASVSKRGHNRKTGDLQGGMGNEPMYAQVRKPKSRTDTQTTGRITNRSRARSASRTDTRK

VZV-ORF9-肽9 = target: T2, VZV-ORF9-肽9 (Varicella-Zoster Virus, pOka毒株); experiment: indirect ELISA, peptide coated at 1μg/孔
T2 construct: Synthetic 20-mer of ORF9; also called 91-110aa
T2 peptide: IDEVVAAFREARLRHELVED

不含表位肽的载体蛋白(HBcAg) C149 = target: T3, 不含表位肽的载体蛋白(HBcAg) C149; experiment: Western blot
T3 construct: also called 载体蛋白C149; 突变型HBc
T3 chain: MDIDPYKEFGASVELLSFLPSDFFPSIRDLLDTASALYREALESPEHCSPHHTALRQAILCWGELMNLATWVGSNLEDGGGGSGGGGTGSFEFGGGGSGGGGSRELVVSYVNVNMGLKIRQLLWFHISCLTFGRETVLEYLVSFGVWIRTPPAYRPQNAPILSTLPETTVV

融合蛋白VZV-ORF9-F1 = target: T4, 融合蛋白VZV-ORF9-F1; experiment: Western blot, antibody at 2μg/mL
T4 construct: Expressed in E. coli, forms virus-like particles; Run on SDS-PAGE for the Western blot
T4 chain: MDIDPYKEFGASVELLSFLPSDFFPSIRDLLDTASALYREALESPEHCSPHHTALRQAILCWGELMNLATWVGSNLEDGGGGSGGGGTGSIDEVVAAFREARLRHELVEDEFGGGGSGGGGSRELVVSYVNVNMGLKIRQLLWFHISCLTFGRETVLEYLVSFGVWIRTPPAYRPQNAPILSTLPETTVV

VZV-ORF9-肽11 = target: T5, VZV-ORF9-肽11 (Varicella-Zoster Virus, pOka毒株); experiment: indirect ELISA, peptide coated at 1μg/孔
T5 construct: Synthetic 20-mer of ORF9; also called 111-130aa
T5 peptide: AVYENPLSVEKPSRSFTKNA

融合蛋白VZV-ORF9-F2-7 = target: T6, 融合蛋白VZV-ORF9-F2-7; experiment: Western blot, antibody at 2μg/mL
T6 chain: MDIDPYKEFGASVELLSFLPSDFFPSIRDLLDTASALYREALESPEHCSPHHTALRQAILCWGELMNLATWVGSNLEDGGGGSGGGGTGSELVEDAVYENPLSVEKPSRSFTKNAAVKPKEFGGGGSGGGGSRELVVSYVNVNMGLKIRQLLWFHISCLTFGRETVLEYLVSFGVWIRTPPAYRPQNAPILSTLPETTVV

融合蛋白VZV-ORF9-F2-8 = target: T7, 融合蛋白VZV-ORF9-F2-8; experiment: Western blot, antibody at 2μg/mL
T7 chain: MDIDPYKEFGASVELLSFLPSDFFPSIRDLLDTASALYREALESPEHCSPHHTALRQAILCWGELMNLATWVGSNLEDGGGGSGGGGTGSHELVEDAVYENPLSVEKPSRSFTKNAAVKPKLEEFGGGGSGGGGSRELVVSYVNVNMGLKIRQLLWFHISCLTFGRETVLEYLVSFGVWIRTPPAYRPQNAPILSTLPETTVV

融合蛋白VZV-ORF9-F2-5 = target: T8, 融合蛋白VZV-ORF9-F2-5; experiment: Western blot, antibody at 2μg/mL
T8 chain: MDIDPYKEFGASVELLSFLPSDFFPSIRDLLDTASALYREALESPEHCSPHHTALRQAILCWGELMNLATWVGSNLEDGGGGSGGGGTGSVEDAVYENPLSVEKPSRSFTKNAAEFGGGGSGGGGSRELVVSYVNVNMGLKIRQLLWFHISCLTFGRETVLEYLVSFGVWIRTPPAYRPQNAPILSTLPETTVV

融合蛋白VZV-ORF9-F2-3 = target: T9, 融合蛋白VZV-ORF9-F2-3; experiment: Western blot, antibody at 2μg/mL
T9 chain: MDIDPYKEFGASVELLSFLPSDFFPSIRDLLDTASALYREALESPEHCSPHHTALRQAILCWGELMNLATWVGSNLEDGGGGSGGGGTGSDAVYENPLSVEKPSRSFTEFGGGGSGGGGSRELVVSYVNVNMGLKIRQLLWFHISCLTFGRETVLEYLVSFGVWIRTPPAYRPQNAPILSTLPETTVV

融合蛋白VZV-ORF9-F2-1 = target: T10, 融合蛋白VZV-ORF9-F2-1; experiment: Western blot, antibody at 2μg/mL
T10 chain: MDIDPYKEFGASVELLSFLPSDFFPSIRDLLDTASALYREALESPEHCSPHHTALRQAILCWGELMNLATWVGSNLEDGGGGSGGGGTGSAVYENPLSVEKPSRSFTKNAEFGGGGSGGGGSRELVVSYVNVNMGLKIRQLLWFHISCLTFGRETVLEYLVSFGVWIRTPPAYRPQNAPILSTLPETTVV

融合蛋白VZV-ORF9-F2-4 = target: T11, 融合蛋白VZV-ORF9-F2-4; experiment: Western blot, antibody at 2μg/mL
T11 chain: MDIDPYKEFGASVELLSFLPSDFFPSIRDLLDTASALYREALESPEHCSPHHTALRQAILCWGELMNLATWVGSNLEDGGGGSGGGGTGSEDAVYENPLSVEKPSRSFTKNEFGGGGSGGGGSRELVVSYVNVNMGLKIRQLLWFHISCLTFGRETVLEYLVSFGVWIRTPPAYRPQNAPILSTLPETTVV

融合蛋白VZV-ORF9-F2-6 = target: T12, 融合蛋白VZV-ORF9-F2-6; experiment: Western blot, antibody at 2μg/mL
T12 chain: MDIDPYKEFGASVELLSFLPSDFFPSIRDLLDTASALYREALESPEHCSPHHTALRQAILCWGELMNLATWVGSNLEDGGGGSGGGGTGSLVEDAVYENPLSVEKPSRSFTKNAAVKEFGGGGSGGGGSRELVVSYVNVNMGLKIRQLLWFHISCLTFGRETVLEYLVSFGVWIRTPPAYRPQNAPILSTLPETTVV

融合蛋白VZV-ORF9-F2-2 = target: T13, 融合蛋白VZV-ORF9-F2-2; experiment: Western blot, antibody at 2μg/mL
T13 chain: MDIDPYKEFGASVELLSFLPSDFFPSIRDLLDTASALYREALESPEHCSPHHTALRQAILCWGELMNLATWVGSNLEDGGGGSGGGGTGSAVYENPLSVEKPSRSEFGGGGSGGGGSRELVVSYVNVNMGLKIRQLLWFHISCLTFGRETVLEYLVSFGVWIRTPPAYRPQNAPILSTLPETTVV

VZV-ORF9-肽12 = target: T14, VZV-ORF9-肽12 (Varicella-Zoster Virus, pOka毒株); experiment: indirect ELISA, peptide coated at 1μg/孔
T14 construct: Synthetic 20-mer of ORF9; also called 121-140aa
T14 peptide: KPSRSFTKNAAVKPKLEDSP

融合蛋白VZV-ORF9-F3 = target: T15, 融合蛋白VZV-ORF9-F3; experiment: Western blot, antibody at 2μg/mL
T15 chain: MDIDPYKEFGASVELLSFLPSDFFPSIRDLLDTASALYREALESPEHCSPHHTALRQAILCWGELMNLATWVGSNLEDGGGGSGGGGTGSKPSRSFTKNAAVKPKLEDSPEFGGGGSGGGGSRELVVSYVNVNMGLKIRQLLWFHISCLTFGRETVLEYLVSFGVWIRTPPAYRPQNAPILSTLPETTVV

B1: 抗VZV ORF9中和性单克隆抗体4E9 (antibody, IgG1, V domains shown)
VH: QVQLQQSGAELMKPGASVKISCKATGYTFSRYWIEWVKLRPGHGLDWIGEILPGSKTNYNEKFKGKATFTADTSSNTAYMQLSSLTSEDSAVYYCAREGFVYWGQGTLVTVSA
VL: DIKMTQSPSSMYASLGERVTITCKASQDINSYLSWLQQKPGKSPKTLIYRANRLVDGVPSRFSGSGSGQDYSLTISSLEYEDMGIYYCLQFDEFPYTFGGGTKLEI
notes: also called 单抗4E9
In the case of B1, the “中和效价 (ELISPOT中和实验, VZV pOka, ARPE-19细胞)” value [1] is reported as 16 dilution 1:x of the 1 mg/mL stock, the binding result (VZV-ORF9-肽9) is reported as “binds” and the binding result (不含表位肽的载体蛋白(HBcAg) C149) is reported as “no binding (tested: 2μg/mL)”. B1: binds (融合蛋白VZV-ORF9-F1).

B2: 抗VZV ORF9中和性单克隆抗体4E8 (antibody, IgG1, V domains shown)
VH: QVQLQQSGPELVKPGASVKMSCKTSGYTFTDDVISWVKQRTGQGLEWIGEINPGSGSIYYNEKFKGKATLTADKSSTTAYMQLSSLTSEDSAVYFCARSQYWGQGTTLTVSS
VL: DVVMTQTPLSLPVSLGDQASISCRSSQSLVHSNGNTYLHWYLQKPGQSPKLLIYKVSNRFSGVPDRFSGSGSGTDFTLKISRVEAEDLGVYFCSQSTHVPLTFGAGTKLELK
notes: also called 单抗4E8
With B2 the “中和效价 (ELISPOT中和实验, VZV pOka, ARPE-19细胞)” value [1] was 32 dilution 1:x of the 1 mg/mL stock, the binding result (VZV-ORF9-肽11) was “binds” and the binding result (不含表位肽的载体蛋白(HBcAg) C149) was “no binding (tested: 2μg/mL)”. B2: binds (融合蛋白VZV-ORF9-F2-7); binds (融合蛋白VZV-ORF9-F2-8); binds (融合蛋白VZV-ORF9-F2-5). B2: binds (融合蛋白VZV-ORF9-F2-3); binds (融合蛋白VZV-ORF9-F2-1); binds (融合蛋白VZV-ORF9-F2-4). B2: binds (融合蛋白VZV-ORF9-F2-6); binds (融合蛋白VZV-ORF9-F2-2).

B3: 抗VZV ORF9中和性单克隆抗体13A7 (antibody, IgG1, V domains shown)
VH: QVQLQQSGAVLARPGASVKLSCKASGYTFTTYWVQWIKQRPGQGLEWIGTIYPGDGDARYAQKFKGKATLTATESSSTAYMQLSSLASEDSAVYYCSRREVYDDYAWFAYWGQGTLVTVSA
VL: QIVLSQSPAILSASPGEKVTMTCRASSSVHYMHWYQQKSGFSPKPWIYATSNLASGVPARFSGSESGTSYSLTISRVEAEDAATYFCQQWSTSPPTFGSGTKLEIK
notes: also called 单抗13A7
B3 was tested, and the “中和效价 (ELISPOT中和实验, VZV pOka, ARPE-19细胞)” value [1] was 16 dilution 1:x of the 1 mg/mL stock, the binding result (VZV-ORF9-肽12) was “binds” and the binding result (不含表位肽的载体蛋白(HBcAg) C149) was “no binding (tested: 2μg/mL)”. B3: binds (融合蛋白VZV-ORF9-F3).
